T1: DR3 expressed on the cell surface (DR3 stable cell line) (human, UniProt Q93038 25-417)
T1 construct: whole, on cells; also called DR3 natural form; human DR3
T1 sequence (looked up): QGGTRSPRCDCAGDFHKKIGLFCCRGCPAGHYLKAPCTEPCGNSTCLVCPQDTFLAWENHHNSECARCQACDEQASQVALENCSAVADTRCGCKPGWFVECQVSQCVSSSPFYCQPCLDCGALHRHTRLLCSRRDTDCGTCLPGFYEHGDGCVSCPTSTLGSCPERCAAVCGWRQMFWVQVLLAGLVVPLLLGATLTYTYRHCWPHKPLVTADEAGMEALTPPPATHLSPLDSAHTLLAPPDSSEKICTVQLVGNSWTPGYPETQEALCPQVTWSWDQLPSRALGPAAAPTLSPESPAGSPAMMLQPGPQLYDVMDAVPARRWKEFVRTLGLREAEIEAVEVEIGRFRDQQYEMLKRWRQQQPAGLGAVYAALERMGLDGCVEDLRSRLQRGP

T2: TL1A (tumor necrosis factor-like ligand 1A), His tag (human, UniProt O95150 72-251)
T2 construct: also called TL1A His tag; TL1A-His tag; not shown: His tag
T2 sequence (looked up): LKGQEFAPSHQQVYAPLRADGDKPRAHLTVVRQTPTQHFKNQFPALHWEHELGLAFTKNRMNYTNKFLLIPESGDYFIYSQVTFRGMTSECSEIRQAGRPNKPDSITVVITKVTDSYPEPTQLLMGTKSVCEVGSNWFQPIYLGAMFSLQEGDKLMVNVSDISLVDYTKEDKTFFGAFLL

B1: anti-DR3 4-4 IgG4 monoclonal antibody (antibody, V domains shown)
VH: EVQLVESGGGLVKPGGSLRLSCAASGFTFSDYYMSWIRQAPGKGLEWVSYISSSSSYTNYADSVKGRFTISRDNAKNSLYLQMNSLRAEDTAVYYCASNVDTAMVGAFDIWGQGTLVTVSS
VL: DIEMTQSPSSVSASVGDTVTITCRASQHISNWLAWYQQKPGQAPKFLIYTASNLQSGVPSRFSGSGYGTDFTLTISGLQPEDFATYYCQQADSFPLTFGGGTKVDIKR
notes: also called clone 4-4 IgG4; human 4-4 IgG4P mAb
B2: anti-DR3 4-4 monoclonal antibody (subclass not stated) (antibody, V domains shown)
VH: EVQLVESGGGLVKPGGSLRLSCAASGFTFSDYYMSWIRQAPGKGLEWVSYISSSSSYTNYADSVKGRFTISRDNAKNSLYLQMNSLRAEDTAVYYCASNVDTAMVGAFDIWGQGTLVTVS
VL: DIEMTQSPSSVSASVGDTVTITCRASQHISNWLAWYQQKPGQAPKFLIYTASNLQSGVPSRFSGSGYGTDFTLTISGLQPEDFATYYCQQADSFPLTFGGGTKVDIK
notes: also called 4-4 mAb; clone 4-4
B3: anti-DR3 scFv clone 4-4 (phage display) (scFv, V domains shown)
VH: B2 VH
VL: B2 VL
B4: clone 4-4 IgG2 monoclonal antibody (antibody, V domains shown)
VH: B2 VH
VL: B2 VL
notes: IgG2 subclass
B5: clone 4-4 IgG1 monoclonal antibody (antibody, V domains shown)
VH: B2 VH
VL: B2 VL
notes: IgG1 subclass; also called anti-DR3 4-4 IgG1 antibody
B6: anti-DR3 3-18 monoclonal antibody (antibody, V domains shown)
VH: QVQLQQSGPGLVKPSETLSLTCTVSGGSISSSSYYWGWIRQPPGKGLEWIGSIYYSGSTYYNPSLKSRVTISVDTSKNQFSLKLSSVTAADTAVYYCARQVSGPLDYWGQGTLVTVS
VL: DIVMTQSPSSLSASVGDRVTITCRASQGIRNDLGWYQQKPGKAPKLLIYAASSLQSGVPSRFSGSGSGTDFTLTISSLQPEDFATYYCLQDYNYPRTFGQGTKVEIK
notes: Human IgG; also called 3-18 mAb; clone 3-18
B7: anti-DR3 scFv clone 3-18 (phage display) (scFv, V domains shown)
VH: B6 VH
VL: B6 VL
B8: anti-DR3 scFv clone 2-10 (phage display) (scFv, V domains shown)
VH: QVQLVQSGAEVKKPGASVKVSCKASGYTFTSYGISWVRQAPGQGLEWMGWISAYNGNTNYAQKLQGRVTMTTDTSTSTAYMELRSLRSDDTAVYYCASGPDYGMLDYWGQGTLVTVS
VL: EIVMTQSPSSLPASVGDRVTITCQASQDISNYLNWYQQKPGKAPKLLIYDASNLETGVPSRFSGSGSGTDFTFTISSPQPEDIATYYCQQYDNLPLTFGGGTKVEIK
B9: anti-DR3 2-10 monoclonal antibody (antibody, V domains shown)
VH: B8 VH
VL: B8 VL
notes: Human IgG (detected with anti-human IgG Fc); also called 2-10 mAb; clone 2-10
B10: anti-DR3 scFv clone 6-15 (phage display) (scFv, V domains shown)
VH: QVQLVQSGGGLVQPGGSLRLSCAASGFTFSSYSMNWVRQAPGKGLEWVSYISSSSSTIYYADSVKGRFTISRDNAKNSLYLQMNSLRAEDTAVYYCARWDGYCSGGSCYSGMDYWGQGTLVTVS
VL: B8 VL with E1D, V3E, P12S, R18K, F71S, P78L
B11: anti-DR3 6-15 monoclonal antibody (antibody, V domains shown)
VH: B10 VH
VL: B8 VL with E1D, V3E, P12S, R18K, F71S, P78L
notes: Human IgG; also called 6-15 mAb; clone 6-15
B12: recombinant DR3 (DR3-His tag) (receptor, human, UniProt Q93038 25-199, looked up)
chain: QGGTRSPRCDCAGDFHKKIGLFCCRGCPAGHYLKAPCTEPCGNSTCLVCPQDTFLAWENHHNSECARCQACDEQASQVALENCSAVADTRCGCKPGWFVECQVSQCVSSSPFYCQPCLDCGALHRHTRLLCSRRDTDCGTCLPGFYEHGDGCVSCPTSTLGSCPERCAAVCGWRQ
notes: it is treated as the same reagent; also called rDR3; death receptor 3; not shown: His tag

Assay [1] concerns the target B12. The experiment in a line: ELISA, DR3-His tag on Ni plate, anti-human IgG Fc HRP. On the procedure:
The functionally best subclass of the anti-DR3 4-4 antibody identified as the best in Example 2 was analyzed. For this purpose, as anti-DR3 4-4 antibodies, clone 4-4 IgG1, clone 4-4 IgG2, and clone 4-4 IgG4 monoclonal antibodies were prepared according to IgG subclass, and ELISA was performed to compare the binding affinity to DR3. Specifically, 0.4 μg/ml DR3-His tag was put into and mixed with PBS, and then a Ni plate was coated with a total of 50 μl of the mixed solution. Thereafter, to prevent non-specific binding, the Ni plate was mixed with 200 μl of PBS consisting of 5% FBS and incubated at room temperature for 30 minutes, and incubated for 30 minutes by titrating the monoclonal antibody. The degree of binding between the coated DR3 and the monoclonal antibody was detected with anti-human IgG Fc HRP. The plate was washed five times with 250 μl of 0.1% Tween 20 at each step.

Assay [2] concerns the target B12. The experiment in a line: SPR, Biacore T100, DR3-His tag immobilized on CM5 chip. Here is the method:
(§1) SPR was performed using monoclonal antibodies from the clones selected in Example 1. After immobilizing 10 μg/ml DR3-His tag on a CM5 chip, the binding specificity and binding strength were measured using Biacore T100 under the conditions of a contact time of 30 sec and a flow rate of […].

In assay [3] the target is T1, DR3 expressed on the cell surface (DR3 …). The experiment in a line: FACS on DR3 stable cell line, 2 ug/ml antibody, anti-human IgG PE. On the procedure:
FACS was performed using monoclonal antibodies from the clones selected in Example 1. Specifically, a DR3 stable cell line at a concentration of 0.2×10⁶ was mixed with 2 μg/ml monoclonal antibody and incubated at 4° C. for 30 minutes, and the degree of binding between the DR3 stable cell line and the monoclonal antibody was confirmed by FACS analysis using anti-human IgG PE. For each step, cells were washed once with 200 μl of PBS. Isotype control was used as a negative control.

Assay [4] has as its target B12. The experiment in a line: phage ELISA of single scFv clones on recombinant DR3. In general terms: In an ELISA, binding on a coated surface is turned into a signal by an enzyme label.
Assay [5] concerns the target T2, TL1A (tumor necrosis factor-like ligand …). Nature of the assay: SPR, Biacore T100, DR3-His tag immobilized on CM5 chip; TL1A as reference. On the procedure: as §1
For orientation: In SPR one partner is held on a chip, and binding of the other changes the refractive index at the surface.

Changes are numbered by the printed parent chain.

In the case of B1, in assay [1], the binding result is “binds”.
Regarding B2, the binding result in assay [2] and in assay [3] was “binds” in each case.
As to B3, in assay [4], the binding result is “binds”.
For the molecule B4, the binding result in assay [1] was “binds”.
With B5, in assay [1], the binding result is on record as “binds”.
With B6, the binding result in assay [2] is “binds”.
With B7, the binding result in assay [4] is given as “binds”.
Turning to B8, the binding result in assay [4] is “binds”.
As for B9, the binding result in assay [2] is “binds”.
For the molecule B10, the binding result in assay [4] is listed as “binds”.
For the molecule B11, the binding result in assay [3] and in assay [1] was “binds” throughout.
For B12, in assay [5], the binding result is “binds”.

Values taken from US20260159596A1 (SELECXINE, published 2026).
